B1: Azoarcus group I ribozyme (parent)
chain: GUGCCUUGCGCCGGGAAACCACGCAAGGGAUGGUGUCAAAUUCGGCGAAACCUAAGCGCCCGCCCGGGCGUAUGGCAACGCCGAGCCAAGCUUCGGCGCCUGCGCCGAUGAAGGUGUAGAGACUAGACGGCACCCACCUAAGGCAAACGCUAUGGUGAAGGCAUAGUCCAGGGAGUGGCGAAAGUCACACAAACCGG

The variants in this data set derive from B1. The experiment in a line: reverse-splicing fitness (ratio to wild type); higher = more active; in vitro selection; Mg2+ level not given. In a few lines: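 An in vitro group I ribozyme library with randomized positions was T7-transcribed and gel-purified. In triplicate, 10 pmol RNA in EPPS pH 7.5 was reacted with 50 pmoles of a 30-nt RNA substrate for 1 h at 37 °C across several added MgCl2 levels (1–48 mM), then stopped with EDTA. Products were reverse transcribed from a substrate-complementary primer, PCR-amplified and sequenced (HiSeq 4000). Fitness is a variant's read proportion after selection over that before, normalised to wild type.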
Consider GUGCCUUGCGCCGGGAAACCACGCAAGGGAUGGUGUCAAAUUCGGCGAAACCUAAGCGCCCGCCCGGGCGUAUGGCAACGCUGAGCCAAGCUUCGGCGCCUGCGCCGAUGCAGGUGUAGCGACUAGACGGCACCCACCUAAGGCCAACGGUAUGGUGAAGGCAUAGUCCAGGGAGCGGCGAAAGUCACACAAACCGG [C82U A111C A120C A145C C150G U176C], for which the reverse-splicing fitness is 0.00717.

Take GUGCCUUGCGCCGGGAAACCACGCAAGGGAUGGUGUCAAAUUCGGCGAAACCUAAGCGCCCGCCCGGGCGUAUGGCAACGCUGAGCCAAGCUUCGGCGCCUGCGCCGAUGCAGGUGUAGCGACUAGACGGCACCCACCUAAGGCCAACGGUAUGGUGAAGGCAUAGUCCAGGGAGAGGCGAAAGUCACACAAACCGG [C82U A111C A120C A145C C150G U176A]: the reverse-splicing fitness came to 0.00512. In the case of GUGCCUUGCGCCGGGAAACCACGCAAGGGAUGGUGUCAAAUUCGGCGAAACCUAAGCGCCCGCCCGGGCGUAUGGCAACGCUGAGCCAAGCUUCGGCGCCUGCGCCGAUGCAGGUGUAGCGACUAGACGGCACCCACCUAAGGCCAACGGUAUGGUGAAGGCAUAGUCCAGGGAGGGGCGAAAGUCACACAAACCGG [C82U A111C A120C A145C C150G U176G], the reverse-splicing fitness turned out to be 0.00262. For GUGCCUUGCGCCGGGAAACCACGCAAGGGAUGGUGUCAAAUUCGGCGAAACCUAAGCGCCCGCCCGGGCGUAUGGCAACGCUGAGCCAAGCUUCGGCGCCUGCGCCGAUGCAGGUGUAGCGACUAGACGGCACCCACCUAAGGCCAACGUUAUGGUGAAGGCAUAGUCCAGGGAGUGGCGAAAGUCACACAAACCGG [C82U A111C A120C A145C C150U], the reverse-splicing fitness is 0.0104.

For GUGCCUUGCGCCGGGAAACCACGCAAGGGAUGGUGUCAAAUUCGGCGAAACCUAAGCGCCCGCCCGGGCGUAUGGCAACGCUGAGCCAAGCUUCGGCGCCUGCGCCGAUGCAGGUGUAGCGACUAGACGGCACCCACCUAAGGCCAACGUUAUGGUGAAGGCAUAGUCGAGGGAGCGGCGAAAGUCACACAAACCGG [C82U A111C A120C A145C C150U C169G U176C], the reverse-splicing fitness was 0.0118. For GUGCCUUGCGCCGGGAAACCACGCAAGGGAUGGUGUCAAAUUCGGCGAAACCUAAGCGCCCGCCCGGGCGUAUGGCAACGCUGAGCCAAGCUUCGGCGCCUGCGCCGAUGCAGGUGUAGCGACUAGACGGCACCCACCUAAGGCCAACGUUAUGGUGAAGGCAUAGUCGAGGGAGGGGCGAAAGUCACACAAACCGG [C82U A111C A120C A145C C150U C169G U176G], the reverse-splicing fitness came to 0.00566.

Consider GUGCCUUGCGCCGGGAAACCACGCAAGGGAUGGUGUCAAAUUCGGCGAAACCUAAGCGCCCGCCCGGGCGUAUGGCAACGCUGAGCCAAGCUUCGGCGCCUGCGCCGAUGCAGGUGUAGCGACUAGACGGCACCCACCUAAGGCCAACGUUAUGGUGAAGGCAUAGUCGAGGGAGAGGCGAAAGUCACACAAACCGG [C82U A111C A120C A145C C150U C169G U176A], for which the reverse-splicing fitness amounted to 0.0188.

With GUGCCUUGCGCCGGGAAACCACGCAAGGGAUGGUGUCAAAUUCGGCGAAACCUAAGCGCCCGCCCGGGCGUAUGGCAACGCUGAGCCAAGCUUCGGCGCCUGCGCCGAUGCAGGUGUAGCGACUAGACGGCACCCACCUAAGGCCAACGGUAUGGUGAAGGCAUAGUCUAGGGAGUGGCGAAAGUCACACAAACCGG [C82U A111C A120C A145C C150G C169U], the reverse-splicing fitness is 0.00884. In the case of GUGCCUUGCGCCGGGAAACCACGCAAGGGAUGGUGUCAAAUUCGGCGAAACCUAAGCGCCCGCCCGGGCGUAUGGCAACGCUGAGCCAAGCUUCGGCGCCUGCGCCGAUGCAGGUGUAGCGACUAGACGGCACCCACCUAAGGCCAACGCUAUGGUGAAGGCAUAGUCGAGGGAGAGGCGAAAGUCACACAAACCGG [C82U A111C A120C A145C C169G U176A], the reverse-splicing fitness is 0.0195. As for GUGCCUUGCGCCGGGAAACCACGCAAGGGAUGGUGUCAAAUUCGGCGAAACCUAAGCGCCCGCCCGGGCGUAUGGCAACGCUGAGCCAAGCUUCGGCGCCUGCGCCGAUGCAGGUGUAGCGACUAGACGGCACCCACCUAAGGCCAACGGUAUGGUGAAGGCAUAGUCUAGGGAGGGGCGAAAGUCACACAAACCGG [C82U A111C A120C A145C C150G C169U U176G], the reverse-splicing fitness is 0.00551. On to GUGCCUUGCGCCGGGAAACCACGCAAGGGAUGGUGUCAAAUUCGGCGAAACCUAAGCGCCCGCCCGGGCGUAUGGCAACGCUGAGCCAAGCUUCGGCGCCUGCGCCGAUGCAGGUGUAGCGACUAGACGGCACCCACCUAAGGCCAACGGUAUGGUGAAGGCAUAGUCUAGGGAGAGGCGAAAGUCACACAAACCGG [C82U A111C A120C A145C C150G C169U U176A], for which the reverse-splicing fitness is 0.0102. In the case of GUGCCUUGCGCCGGGAAACCACGCAAGGGAUGGUGUCAAAUUCGGCGAAACCUAAGCGCCCGCCCGGGCGUAUGGCAACGCUGAGCCAAGCUUCGGCGCCUGCGCCGAUGCAGGUGUAGCGACUAGACGGCACCCACCUAAGGCCAACGGUAUGGUGAAGGCAUAGUCUAGGGAGCGGCGAAAGUCACACAAACCGG [C82U A111C A120C A145C C150G C169U U176C], the reverse-splicing fitness was determined as 0.0117. With GUGCCUUGCGCCGGGAAACCACGCAAGGGAUGGUGUCAAAUUCGGCGAAACCUAAGCGCCCGCCCGGGCGUAUGGCAACGCUGAGCCAAGCUUCGGCGCCUGCGCCGAUGCAGGUGUAGCGACUAGACGGCACCCACCUAAGGCCAACGUUAUGGUGAAGGCAUAGUCAAGGGAGUGGCGAAAGUCACACAAACCGG [C82U A111C A120C A145C C150U C169A], the reverse-splicing fitness came to 0.00742. Regarding GUGCCUUGCGCCGGGAAACCACGCAAGGGAUGGUGUCAAAUUCGGCGAAACCUAAGCGCCCGCCCGGGCGUAUGGCAACGCUGAGCCAAGCUUCGGCGCCUGCGCCGAUGCAGGUGUAGCGACUAGACGGCACCCACCUAAGGCCAACGUUAUGGUGAAGGCAUAGUCGAGGGAGUGGCGAAAGUCACACAAACCGG [C82U A111C A120C A145C C150U C169G], the reverse-splicing fitness was 0.00644. In the case of GUGCCUUGCGCCGGGAAACCACGCAAGGGAUGGUGUCAAAUUCGGCGAAACCUAAGCGCCCGCCCGGGCGUAUGGCAACGCUGAGCCAAGCUUCGGCGCCUGCGCCGAUGCAGGUGUAGCGACUAGACGGCACCCACCUAAGGCCAACGUUAUGGUGAAGGCAUAGUCUAGGGAGUGGCGAAAGUCACACAAACCGG [C82U A111C A120C A145C C150U C169U], the reverse-splicing fitness is 0.0108.

The values above are taken from the RNAGym collection of RNA variant scans (doi:10.1093/molbev/msab373).
